Series [1] deals with the molecule itself. The experiment in a line: not stated; K343E mutant of A13DBD; the method is not named for this mutant (the neighbouring mutants were tested by SEC/MALS of the DNA complex).
Series [2] concerns the molecule itself. The experiment in a line: SEC-MALS; A13DBD bound to 11-mer DNA duplex; Superdex 75 HR 10/30 at 4°C, calibrated with mass standards, in line with MALS and refractive index; mass as a function of protein concentration; dimer to monomers.
Series [3] deals with the molecule itself. Kind of series: 15N NMR relaxation (rotational correlation time); A13DBD bound to 11-mer DNA duplex, about 0.5 mM, 310 K, 20 mM NaPO4, 5 mM MgCl2, pH 6.0; R2/R1 gives the rotational correlation time and a spherical mass.

B1: HOXA13 DNA binding domain (A13DBD) K343E (domain or fragment)
chain: not shown
notes: numbers count on: GenBank AAB03322.1; source: E. coli BL21(DE3), purified (His-tag purification, thrombin cleavage, Superdex-75)
Take B1: in series [1], the “fold lowering of the dimerization affinity against wild type” value was around 5 fold.

B2: HOXA13 DNA binding domain (A13DBD), wild type (domain or fragment)
chain: not shown
notes: numbers count on: GenBank AAB03322.1; The introduction gives residues 314-386 for A13DBD, the methods G320-S386; Cloned in pET-15b; also called HOXA13 homeodomain; WT; source: E. coli BL21(DE3), purified (His-tag purification, thrombin cleavage, Superdex-75)
Take B2: the Kd in series [2] was below 500 nM. Besides, the “stoichiometry N” value in series [3] amounted to 2.

B3: HOXA13 DNA binding domain (A13DBD) F344A (domain or fragment)
chain: not shown
notes: numbers count on: GenBank AAB03322.1; Made by QuikChange mutagenesis of pHisA13DBD; The luciferase assay used the same mutation in full-length HOXA13 (pCAGGS-HOXA13) in NG108-15 cells; source: E. coli BL21(DE3), purified (His-tag purification, thrombin cleavage, Superdex-75)
For B3, in series [2], the “fold weakening of the dimerization affinity against wild type” value is at least 10 fold.

Source of the values: publication PMC3148250, “Structural Basis for Sequence Specific DNA Binding and Protein Dimerization of HOXA13” (PLoS ONE, 2011).
